Numbering of substitutions follows the chain as printed.
Tests used:
Assay type in all cases: biochemical
[1] = HTP-analysis of yeast culture supernatants, no challenge (MUGal hydrolysis); settings: activity of the variant/activity of Rd2BB (SEQ ID NO: 10), yeast culture supernatant
How it was run: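 Activity read as 4-methylumbelliferyl α-D-galactopyranoside hydrolysis: fluorescence (355/448 nm) after sodium carbonate stop, following 30-180 min at 37° C with 2 mM MUGal stock at pH 4.6–4.8. Enzyme source is unchallenged culture supernatant of INVSc1 yeast expressing GLA variants, grown 66-84 h at 30° C.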

[2] = HTP-analysis of supernatants pretreated with base (MUGal hydrolysis); settings: challenge at pH 7.6; activity of the variant/activity of Rd2BB (SEQ ID NO: 10); yeast culture supernatant
How it was run: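 GLA variants secreted from yeast INVSc1; culture supernatants pre-incubated with McIlvaine buffer pH 7.0–8.2 or 200 mM bicarbonate pH 9.1–9.7 at 37° C. for 1–18 h. Residual activity: MUGal (4 mM stock) hydrolysis at pH 4.3–4.8, 37° C., 30–180 min, carbonate quench; fluorescence Ex 355/Em 448 nm.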

[3] = HTP-analysis of supernatants pretreated with bovine serum (MUGal hydrolysis); settings: activity of the variant/activity of Rd2BB (SEQ ID NO: 10), yeast culture supernatant
How it was run: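 Yeast INVSc1 culture supernatants containing secreted GLA variants were mixed with bovine serum (20:80) and held 1 h at 37° C. Serum-treated samples then reacted with MUGal (4 mM stock) in citrate/McIlvaine buffer (pH 4.3/4.8) for 180 min at 37° C., were quenched with sodium carbonate, and read by fluorescence (Ex 355, Em 448 nm).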

[4] = HTP-analysis of supernatants pretreated with acid (MUGal hydrolysis); settings: challenge at pH 4.2; activity of the variant/activity of Rd2BB (SEQ ID NO: 10); yeast culture supernatant
How it was run: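 Fluorescence of MUGal hydrolysis (Ex. 355 nm, Em. 448 nm) is read after sodium carbonate quench. The enzyme source is INVSc1 yeast culture supernatant, first exposed to pH 3.3-4.3 McIlvaine buffer at 37° C. for 1-3 h, then reacted at pH 4.8 for 30-180 minutes.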

B1: 292 (protein)
chain: LDNGLARTPTMGWLHWERFMCNLDCQEEPDSCISEKLFMEMAERMVSEGWKDAGYEYLCIDDCWMAPQRDSEGRLQADPQRFPHGIRQLANYVHSKGLKFGIYADVGNKTCAGFPGSFGYYDIDAQTFADWGVDLLKFDGCYCDSLENLADGYKHMSLALNRTGRSIVYSCEWPLYMWPFQKPNYTEIRQYCNHWRNFADIDDSWASVKSILDWTSFNHERIVDVAGPGGWNDPDMLVIGNFGLSWDQQVTQMALWAIMAAPLFMSNDLRHISPQAKALLQDKDVIAINQDPLGKQGYQLRKGDNFEVWERPLSGLAWAVAVINRQEIGGPRSYTIAVASLGKGVACNPACFITQLLPVKRKLGFYEWTSRLKSHVNPTGTVLLQLENTMQMSLKDLL
modifications: Synthetic Polypeptide sequence of Variant No. 292 of mature Human GLA
Relative Activity of GLA Variants After No Challenge (NC) [1]: +++ (+++ = >2.5 relative activity over Rd2BB (SEQ ID NO: 10)) | Relative Activity of GLA Variants After Challenge at pH 7.6 [2]: +++ (+++ = >2.5 relative activity over Rd2BB (SEQ ID NO: 10)) | Relative Activity of GLA Variants After Challenge with Serum [3]: ++ (++ = 1.5 to 2.5 relative activity over Rd2BB (SEQ ID NO: 10)) | Relative Activity of GLA Variants After Challenge at pH 4.2 [4]: ++ (++ = 1.5 to 2.5 relative activity over Rd2BB (SEQ ID NO: 10))

B2: 294 (protein)
chain: B1 chain with H219Q, R221T, K302Q, K373R
modifications: Synthetic Polypeptide sequence of Variant No. 294 of mature Human GLA
Relative Activity of GLA Variants After No Challenge (NC) [1]: ++ (++ = 1.5 to 2.5 relative activity over Rd2BB (SEQ ID NO: 10)) | Relative Activity of GLA Variants After Challenge at pH 7.6 [2]: +++ (+++ = >2.5 relative activity over Rd2BB (SEQ ID NO: 10)) | Relative Activity of GLA Variants After Challenge with Serum [3]: + (+ = 0.5 to 1.5 relative activity over Rd2BB (SEQ ID NO: 10)) | Relative Activity of GLA Variants After Challenge at pH 4.2 [4]: ++ (++ = 1.5 to 2.5 relative activity over Rd2BB (SEQ ID NO: 10))

B3: 293 (protein)
chain: B1 chain with H219Q, R221K, F365L, K373R
modifications: Synthetic Polypeptide sequence of Variant No. 293 of mature Human GLA
Relative Activity of GLA Variants After No Challenge (NC) [1]: ++ (++ = 1.5 to 2.5 relative activity over Rd2BB (SEQ ID NO: 10)) | Relative Activity of GLA Variants After Challenge at pH 7.6 [2]: ++ (++ = 1.5 to 2.5 relative activity over Rd2BB (SEQ ID NO: 10)) | Relative Activity of GLA Variants After Challenge with Serum [3]: + (+ = 0.5 to 1.5 relative activity over Rd2BB (SEQ ID NO: 10)) | Relative Activity of GLA Variants After Challenge at pH 4.2 [4]: + (+ = 0.5 to 1.5 relative activity over Rd2BB (SEQ ID NO: 10))

B4: 295 (protein)
chain: B1 chain with H219Q, R221T, V322I, F365L
modifications: Synthetic Polypeptide sequence of Variant No. 295 of mature Human GLA
Relative Activity of GLA Variants After No Challenge (NC) [1]: +++ (+++ = >2.5 relative activity over Rd2BB (SEQ ID NO: 10)) | Relative Activity of GLA Variants After Challenge at pH 7.6 [2]: +++ (+++ = >2.5 relative activity over Rd2BB (SEQ ID NO: 10)) | Relative Activity of GLA Variants After Challenge with Serum [3]: +++ (+++ = >2.5 relative activity over Rd2BB (SEQ ID NO: 10)) | Relative Activity of GLA Variants After Challenge at pH 4.2 [4]: +++ (+++ = >2.5 relative activity over Rd2BB (SEQ ID NO: 10))

B5: 288 (protein)
chain: LDNGLARTPTMGWLHWERFMCNLDCQEEPDSCISEKLFMEMAERMVSEGWKDAGYEYLCIDDCWMAPQRDSEGRLQADPQRFPHGIRQLANYVHSIGLKLGIYADVGNKTCAGFPGSFGYYDIDAQTFADWGVDLLKFDGCYCDSLENLADGYKHMSLALNRTGRSIVYSCEWPLYMWPFQKPNYTEIRQYCNHWRNFADIDDSWASIKSILDWTSRNQERIVDVAGPGGWNDPDMLVIGNFGLSWDQQVTQMALWAIMAAPLFMSNDLRHISPQAKALLQDKDVIAINQDPLGKQGYQLRKGDNFEVWERPLSGLAWAVAMINRQEIGGPRSYTIPVASLGKGVACNPGCFITQLLPVKRKLGFYDWDSRLRSHINPTGTVLLQLENTMQMSLKDLL
modifications: Synthetic Polypeptide sequence of Variant No. 288 of mature Human GLA
Relative Activity of GLA Variants After No Challenge (NC) [1]: +++ (+++ = >2.5 relative activity over Rd2BB (SEQ ID NO: 10)) | Relative Activity of GLA Variants After Challenge at pH 7.6 [2]: +++ (+++ = >2.5 relative activity over Rd2BB (SEQ ID NO: 10)) | Relative Activity of GLA Variants After Challenge with Serum [3]: +++ (+++ = >2.5 relative activity over Rd2BB (SEQ ID NO: 10)) | Relative Activity of GLA Variants After Challenge at pH 4.2 [4]: +++ (+++ = >2.5 relative activity over Rd2BB (SEQ ID NO: 10))

B6: 290 (protein)
chain: B5 chain with R217F, K302Q, L316D
modifications: Synthetic Polypeptide sequence of Variant No. 290 of mature Human GLA
Relative Activity of GLA Variants After No Challenge (NC) [1]: +++ (+++ = >2.5 relative activity over Rd2BB (SEQ ID NO: 10)) | Relative Activity of GLA Variants After Challenge at pH 7.6 [2]: +++ (+++ = >2.5 relative activity over Rd2BB (SEQ ID NO: 10)) | Relative Activity of GLA Variants After Challenge with Serum [3]: +++ (+++ = >2.5 relative activity over Rd2BB (SEQ ID NO: 10)) | Relative Activity of GLA Variants After Challenge at pH 4.2 [4]: +++ (+++ = >2.5 relative activity over Rd2BB (SEQ ID NO: 10))

B7: 236 (protein)
chain: B5 chain with R44L, I96K, D247N, P337A, G350A
modifications: Synthetic Polypeptide sequence of Variant No. 236 of mature Human GLA
Relative Activity of GLA Variants After No Challenge (NC) [1]: +++ (+++ = >2.5 relative activity over Rd2BB (SEQ ID NO: 10)) | Relative Activity of GLA Variants After Challenge at pH 7.6 [2]: +++ (+++ = >2.5 relative activity over Rd2BB (SEQ ID NO: 10)) | Relative Activity of GLA Variants After Challenge with Serum [3]: ++ (++ = 1.5 to 2.5 relative activity over Rd2BB (SEQ ID NO: 10)) | Relative Activity of GLA Variants After Challenge at pH 4.2 [4]: ++ (++ = 1.5 to 2.5 relative activity over Rd2BB (SEQ ID NO: 10))

B8: 235 (protein)
chain: B5 chain with R44L, I96K, L316D
modifications: Synthetic Polypeptide sequence of Variant No. 235 of mature Human GLA
Relative Activity of GLA Variants After No Challenge (NC) [1]: +++ (+++ = >2.5 relative activity over Rd2BB (SEQ ID NO: 10)) | Relative Activity of GLA Variants After Challenge at pH 7.6 [2]: +++ (+++ = >2.5 relative activity over Rd2BB (SEQ ID NO: 10)) | Relative Activity of GLA Variants After Challenge with Serum [3]: +++ (+++ = >2.5 relative activity over Rd2BB (SEQ ID NO: 10)) | Relative Activity of GLA Variants After Challenge at pH 4.2 [4]: +++ (+++ = >2.5 relative activity over Rd2BB (SEQ ID NO: 10))

B9: 291 (protein)
chain: B1 chain with V208I, H219Q, D247N, K302Q, V322M, F365L, K373R, V376I
modifications: Synthetic Polypeptide sequence of Variant No. 291 of mature Human GLA
Relative Activity of GLA Variants After No Challenge (NC) [1]: + (+ = 0.5 to 1.5 relative activity over Rd2BB (SEQ ID NO: 10)) | Relative Activity of GLA Variants After Challenge at pH 7.6 [2]: + (+ = 0.5 to 1.5 relative activity over Rd2BB (SEQ ID NO: 10)) | Relative Activity of GLA Variants After Challenge with Serum [3]: + (+ = 0.5 to 1.5 relative activity over Rd2BB (SEQ ID NO: 10)) | Relative Activity of GLA Variants After Challenge at pH 4.2 [4]: + (+ = 0.5 to 1.5 relative activity over Rd2BB (SEQ ID NO: 10))

B10: 233 (protein)
chain: B5 chain with R44L, I96K, K302Q, L316D, P337A
modifications: Synthetic Polypeptide sequence of Variant No. 233 of mature Human GLA
Relative Activity of GLA Variants After No Challenge (NC) [1]: +++ (+++ = >2.5 relative activity over Rd2BB (SEQ ID NO: 10)) | Relative Activity of GLA Variants After Challenge at pH 7.6 [2]: +++ (+++ = >2.5 relative activity over Rd2BB (SEQ ID NO: 10)) | Relative Activity of GLA Variants After Challenge with Serum [3]: +++ (+++ = >2.5 relative activity over Rd2BB (SEQ ID NO: 10)) | Relative Activity of GLA Variants After Challenge at pH 4.2 [4]: +++ (+++ = >2.5 relative activity over Rd2BB (SEQ ID NO: 10))

B11: 234 (protein)
chain: B5 chain with R44L, I96K, P337A
modifications: Synthetic Polypeptide sequence of Variant No. 234 of mature Human GLA
Relative Activity of GLA Variants After No Challenge (NC) [1]: +++ (+++ = >2.5 relative activity over Rd2BB (SEQ ID NO: 10)) | Relative Activity of GLA Variants After Challenge at pH 7.6 [2]: +++ (+++ = >2.5 relative activity over Rd2BB (SEQ ID NO: 10)) | Relative Activity of GLA Variants After Challenge with Serum [3]: +++ (+++ = >2.5 relative activity over Rd2BB (SEQ ID NO: 10)) | Relative Activity of GLA Variants After Challenge at pH 4.2 [4]: +++ (+++ = >2.5 relative activity over Rd2BB (SEQ ID NO: 10))

B12: 289 (protein)
chain: B5 chain with D247N, P337A, D367E, D369T
modifications: Synthetic Polypeptide sequence of Variant No. 289 of mature Human GLA
Relative Activity of GLA Variants After No Challenge (NC) [1]: + (+ = 0.5 to 1.5 relative activity over Rd2BB (SEQ ID NO: 10)) | Relative Activity of GLA Variants After Challenge at pH 7.6 [2]: ++ (++ = 1.5 to 2.5 relative activity over Rd2BB (SEQ ID NO: 10)) | Relative Activity of GLA Variants After Challenge with Serum [3]: ++ (++ = 1.5 to 2.5 relative activity over Rd2BB (SEQ ID NO: 10)) | Relative Activity of GLA Variants After Challenge at pH 4.2 [4]: ++ (++ = 1.5 to 2.5 relative activity over Rd2BB (SEQ ID NO: 10))
